Test results as given in publication doi:10.1101/2021.10.03.462214 (bioRxiv, 2021).

Molecular target: UBg_8UBgg (UniProt P0CG47, G76 deletion)
Assay: cryo-EM structure

B1: Rpn10 (natural protein)
chain: MVLESTMVCVDNSEYMRNGDFLPTRLQAQQDAVNIVCHSKTRSNPENNVGLITLANDCEVLTTLTPDTGRILSKLHTVQPKGKITFCTGIRVAHLALKHRQGKNHKMRIIAFVGSPVEDNEKDLVKLAKRLKKEKVNVDIINFGEEEVNTEKLTAFVNTLNGKDGTGSHLVTVPPGPSLADALISSPILAGEGGAMLGLGASDFEFGVDPSADPELALALRVSMEEQRQRQEEEARRAAAASAAEAGIATTGTEDSDDALLKMTISQQEFGRTGLPDLSSMTEEEQIAYAMQMSLQGAEFGQAESADIDASSAMDTSEPAKEEDDYDVMQDPEFLQSVLENLPGVDPNNEAIRNAMGSLASQATKDGKKDKKEEDKK
**Q.** Does B1 bind?
**A.** binds
